The values below come from the supplement of paper PMC6379048.

What all share (experiment): Kd (EC50 corrected by depletion factor)
One data set deals with T1, LSM1 (UniProt O15116).
T1 sequence: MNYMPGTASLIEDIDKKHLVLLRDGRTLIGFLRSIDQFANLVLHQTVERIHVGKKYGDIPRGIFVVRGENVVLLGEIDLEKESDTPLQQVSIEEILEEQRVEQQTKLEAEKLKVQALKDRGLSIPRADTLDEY
The essentials: (§1)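 HEK293-FT lysate (2.5 mg protein/well) was treated with free RNA oligos (0 nM to 30 μM) for 1 h at 4°C, then with the same oligos on NHS-Sepharose beads for 30 min at 4°C. Bound proteins were quantified by label-free LC-MS/MS relative to the control. EC50 came from a four-parameter log-logistic fit, and Kd is EC50 times a protein-dependent depletion factor.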

The next data set addresses T2, LSM7 (UniProt Q9UK45).
T2 sequence: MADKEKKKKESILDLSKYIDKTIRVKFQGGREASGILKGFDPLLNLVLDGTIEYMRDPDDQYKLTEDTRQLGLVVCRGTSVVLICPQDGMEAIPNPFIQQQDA
The essentials: as §1

The next data set addresses T3, MEX3A (UniProt A1L020).
T3 sequence: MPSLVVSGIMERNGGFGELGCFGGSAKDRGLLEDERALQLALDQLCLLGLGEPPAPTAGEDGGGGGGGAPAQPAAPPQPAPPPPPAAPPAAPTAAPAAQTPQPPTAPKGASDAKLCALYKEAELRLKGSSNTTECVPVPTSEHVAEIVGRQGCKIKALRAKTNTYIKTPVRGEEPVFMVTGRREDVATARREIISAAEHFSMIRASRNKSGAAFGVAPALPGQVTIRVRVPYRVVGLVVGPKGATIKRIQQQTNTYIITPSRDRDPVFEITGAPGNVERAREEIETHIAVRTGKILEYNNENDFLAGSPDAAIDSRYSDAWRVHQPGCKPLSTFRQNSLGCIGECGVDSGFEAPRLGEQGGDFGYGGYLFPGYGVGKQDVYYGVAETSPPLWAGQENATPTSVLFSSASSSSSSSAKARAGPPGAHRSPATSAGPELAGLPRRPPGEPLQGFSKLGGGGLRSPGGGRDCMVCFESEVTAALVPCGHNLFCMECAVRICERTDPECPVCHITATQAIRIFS
The essentials:
as §1

For a further data set, the target named is T4, RBMS1 (UniProt P29558).
T4 sequence: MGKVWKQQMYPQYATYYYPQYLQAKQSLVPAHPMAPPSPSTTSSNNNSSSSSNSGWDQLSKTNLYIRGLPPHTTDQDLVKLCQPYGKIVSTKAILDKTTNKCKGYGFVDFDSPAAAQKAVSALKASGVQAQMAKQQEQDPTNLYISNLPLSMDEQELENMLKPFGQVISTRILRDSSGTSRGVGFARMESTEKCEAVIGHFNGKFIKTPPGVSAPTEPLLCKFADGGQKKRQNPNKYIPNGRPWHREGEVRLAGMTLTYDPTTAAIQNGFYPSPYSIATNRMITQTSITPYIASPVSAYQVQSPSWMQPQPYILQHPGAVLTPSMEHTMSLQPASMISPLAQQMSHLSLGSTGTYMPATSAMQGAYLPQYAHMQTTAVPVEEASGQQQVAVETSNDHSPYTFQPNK
The essentials: as §1

The target in the next data set is T5, XAB2 (UniProt Q9HCS7).
T5 sequence: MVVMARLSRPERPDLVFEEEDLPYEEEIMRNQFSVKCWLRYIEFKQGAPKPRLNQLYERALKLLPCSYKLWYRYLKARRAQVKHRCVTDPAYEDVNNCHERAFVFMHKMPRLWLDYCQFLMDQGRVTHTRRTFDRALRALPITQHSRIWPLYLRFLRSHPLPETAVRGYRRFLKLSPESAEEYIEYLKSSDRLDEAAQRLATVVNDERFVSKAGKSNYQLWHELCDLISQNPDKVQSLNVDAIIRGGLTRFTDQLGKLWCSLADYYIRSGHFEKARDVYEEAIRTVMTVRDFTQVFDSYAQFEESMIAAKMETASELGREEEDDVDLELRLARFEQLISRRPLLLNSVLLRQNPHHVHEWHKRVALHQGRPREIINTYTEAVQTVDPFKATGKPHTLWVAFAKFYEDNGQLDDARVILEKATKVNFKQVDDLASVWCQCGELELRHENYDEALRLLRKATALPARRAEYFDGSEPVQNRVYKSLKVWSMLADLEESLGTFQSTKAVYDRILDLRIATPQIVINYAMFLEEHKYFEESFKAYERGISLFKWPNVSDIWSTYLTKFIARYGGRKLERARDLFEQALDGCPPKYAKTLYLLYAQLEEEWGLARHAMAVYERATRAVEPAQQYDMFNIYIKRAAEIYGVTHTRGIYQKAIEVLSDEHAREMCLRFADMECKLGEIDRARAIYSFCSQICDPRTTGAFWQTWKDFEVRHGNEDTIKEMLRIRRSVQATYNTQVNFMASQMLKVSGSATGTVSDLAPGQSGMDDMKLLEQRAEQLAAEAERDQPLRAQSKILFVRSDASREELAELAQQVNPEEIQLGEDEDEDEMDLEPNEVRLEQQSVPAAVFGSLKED
The method, boiled down: as §1

As to AAUAAA, the Kd with LSM1 was found to be 23.2 nM; with LSM7 it was 142 nM; with MEX3A, 536 nM; with RBMS1, 156 nM; in the data set with XAB2 it was 322 nM.
The like results for UAUUUAU were, in that order, 167 nM, 270 nM, 277 nM, 114 nM and 286 nM.
